Results on two molecules are retold here after patent US20070065429A1 (Biogen, published 2007).

Experiment [1] concerns the target T1, AP-Aβ (UniProt P05187 23-511; P05067 672-699).
T1 construct: Fusion of alkaline phosphatase and Aβ(1-28); The range 1-28 is Aβ numbering; also called AP-Aβ(1-28); soluble AP-Aβ(1-28)
Kind of experiment: AP fusion binding to COS cells expressing NgR, saturation.

Experiment [2] deals with T2, Fluo-Aβ42 (UniProt P05067 672-713, 'Fluo' label (kind and position not stated)).
T2 construct: also called fibrillogenic Aβ42 peptide
Kind of experiment: Fluo-Aβ42 incubated 2 h at 4° C. with SKNMC cells expressing human NgR-1.

T1 sequence (P05187 other isoform, or with tags, fused parts or gaps): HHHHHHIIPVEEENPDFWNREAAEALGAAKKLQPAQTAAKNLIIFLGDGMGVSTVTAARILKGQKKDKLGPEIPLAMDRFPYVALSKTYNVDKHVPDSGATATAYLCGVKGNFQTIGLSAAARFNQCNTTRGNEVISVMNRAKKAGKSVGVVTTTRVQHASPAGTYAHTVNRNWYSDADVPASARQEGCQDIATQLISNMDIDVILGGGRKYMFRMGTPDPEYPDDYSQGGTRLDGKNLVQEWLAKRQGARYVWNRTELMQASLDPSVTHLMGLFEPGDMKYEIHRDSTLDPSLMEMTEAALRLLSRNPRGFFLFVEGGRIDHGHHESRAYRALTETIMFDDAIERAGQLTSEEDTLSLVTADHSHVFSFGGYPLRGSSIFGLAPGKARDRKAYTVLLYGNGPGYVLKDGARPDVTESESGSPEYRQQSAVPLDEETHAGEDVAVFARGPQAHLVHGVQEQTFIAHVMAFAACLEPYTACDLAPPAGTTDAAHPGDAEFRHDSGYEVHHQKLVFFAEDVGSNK

B1: NgR expressed in COS cells (receptor)
chain: CPGACVCYNEPKVTTSCPQQGLQAVPVGIPAASQRIFLHGNRISHVPAASFRACRNLTILWLHSNVLARIDAAAFTGLALLEQLDLSDNAQLRSVDPATFHGLGRLHTLHLDRCGLQELGPGLFRGLAALQYLYLQDNALQALPDDTFRDLGNLTHLFLHGNRISSVPERAFRGLHSLDRLLLHQNRVAHVHPHAFRDLGRLMTLYLFANNLSALPTEALAPLRALQYLRLNDNPWVCDCRARPLWAWLQKFRGSSSEVPCSLPQRLAGRDLKRLAANDLQGCAVATGPYHPIWTGRATDEEPLGLPKCCQPDAADKASVLEPGRPASAGNALKGRVPPGDSPPGNGSGPRHINDSPFGTLPGSAEPPLTAVRPEGSEPPGFPTSGPRRRPGCSRKNRTRSHCRLGQAGSGGGGTGDSEGS
On to B1, for which the affinity in experiment [1], expressed as Kd, was 60 nM. This counts as double-digit nanomolar.

B2: human NgR-1 expressed on human SKNMC cells (receptor, UniProt Q9BZR6 27-447, looked up)
chain: B1 chain
notes: whole, on cells
In the case of B2, the binding result in experiment [2] is on record as “binds”.

A word on the Kd: it is the free concentration of one partner at which half of the binding sites on the other are occupied at equilibrium, for simple one-to-one binding. A high value points to lower affinity.
